The text below walks through data of patent publication US20090202526A1 (RINAT NEUROSCIENCE, published 2009).

The target in experiment [1] is T1, Human trkA (human, UniProt P04629 33-423, limits assumed).
T1 construct: BIAcore essentially as for trkC; construct not described
Kind of experiment: BIAcore SPR.

Experiment [2] concerns the target T2, Rat trkA (rat, UniProt P35739 33-418, limits assumed).
T2 construct: BIAcore essentially as for trkC; construct not described
Kind of experiment: BIAcore SPR. For orientation: In SPR one partner is held on a chip, and binding of the other changes the refractive index at the surface.

Experiment [3] concerns the target T3, Human trkB (human, UniProt Q16620 32-430, limits assumed).
T3 construct: BIAcore essentially as for trkC; construct not described
Kind of experiment: BIAcore SPR.

Experiment [4] concerns the target T4, Rat trkB (rat, UniProt Q63604 32-429, limits assumed).
T4 construct: BIAcore essentially as for trkC; construct not described
Kind of experiment: BIAcore SPR.

Experiment [5] addresses Rat trkC on trigeminal neurons (rat, UniProt Q03351 32-864). In words: cell-based or functional assay.
Experiment [6] concerns the target Human trkC (KIRA assay) (human, UniProt Q16288 32-839, limits assumed). In words: cell-based or functional assay.

T3 sequence (Q16620 32-430 limits assumed): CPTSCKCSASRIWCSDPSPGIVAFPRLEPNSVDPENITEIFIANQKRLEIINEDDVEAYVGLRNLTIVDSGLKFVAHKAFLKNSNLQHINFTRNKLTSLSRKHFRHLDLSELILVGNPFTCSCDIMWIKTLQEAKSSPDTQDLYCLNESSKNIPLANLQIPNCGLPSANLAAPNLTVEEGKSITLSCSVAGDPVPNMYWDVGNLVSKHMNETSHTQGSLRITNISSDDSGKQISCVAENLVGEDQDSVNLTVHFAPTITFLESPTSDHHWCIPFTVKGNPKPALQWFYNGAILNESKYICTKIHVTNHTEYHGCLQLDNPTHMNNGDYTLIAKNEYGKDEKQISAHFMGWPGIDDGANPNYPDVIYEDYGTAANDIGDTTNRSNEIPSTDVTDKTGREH
Rat trkC on trigeminal neurons, sequence (Q03351 32-864): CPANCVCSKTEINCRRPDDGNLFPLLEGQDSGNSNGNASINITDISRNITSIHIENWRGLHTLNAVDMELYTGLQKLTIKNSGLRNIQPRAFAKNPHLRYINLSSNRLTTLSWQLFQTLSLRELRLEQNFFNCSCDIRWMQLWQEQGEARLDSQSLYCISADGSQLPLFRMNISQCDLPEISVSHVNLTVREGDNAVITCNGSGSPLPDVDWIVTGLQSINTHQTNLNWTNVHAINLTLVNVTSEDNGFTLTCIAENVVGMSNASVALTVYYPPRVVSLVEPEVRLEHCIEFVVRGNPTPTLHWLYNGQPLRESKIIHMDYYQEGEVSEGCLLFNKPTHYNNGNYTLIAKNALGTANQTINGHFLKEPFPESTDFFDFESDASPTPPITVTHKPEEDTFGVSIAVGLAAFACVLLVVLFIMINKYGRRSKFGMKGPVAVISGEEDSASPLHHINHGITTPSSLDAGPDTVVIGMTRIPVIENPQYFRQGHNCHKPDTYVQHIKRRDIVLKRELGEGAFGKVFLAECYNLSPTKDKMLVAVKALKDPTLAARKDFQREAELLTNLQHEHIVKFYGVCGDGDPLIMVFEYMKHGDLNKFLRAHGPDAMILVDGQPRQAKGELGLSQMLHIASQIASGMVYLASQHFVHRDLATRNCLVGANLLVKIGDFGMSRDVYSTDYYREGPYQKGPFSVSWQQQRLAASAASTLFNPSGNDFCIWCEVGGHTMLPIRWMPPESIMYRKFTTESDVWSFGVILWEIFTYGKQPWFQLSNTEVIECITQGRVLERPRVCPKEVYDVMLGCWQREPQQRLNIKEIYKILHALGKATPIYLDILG
T2 sequence (P35739 33-418 limits assumed): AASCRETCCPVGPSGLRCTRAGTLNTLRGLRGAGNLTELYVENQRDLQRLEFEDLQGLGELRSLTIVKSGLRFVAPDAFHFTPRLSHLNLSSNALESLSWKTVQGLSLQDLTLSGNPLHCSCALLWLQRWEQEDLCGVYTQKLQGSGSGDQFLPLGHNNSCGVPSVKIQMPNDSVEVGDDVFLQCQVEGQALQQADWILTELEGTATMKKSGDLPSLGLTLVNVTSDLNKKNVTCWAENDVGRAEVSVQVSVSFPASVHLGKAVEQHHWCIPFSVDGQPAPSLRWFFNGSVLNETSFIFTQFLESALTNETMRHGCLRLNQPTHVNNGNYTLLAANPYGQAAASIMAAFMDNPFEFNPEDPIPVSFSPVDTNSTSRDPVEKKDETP
T1 sequence (P04629 33-423 limits assumed): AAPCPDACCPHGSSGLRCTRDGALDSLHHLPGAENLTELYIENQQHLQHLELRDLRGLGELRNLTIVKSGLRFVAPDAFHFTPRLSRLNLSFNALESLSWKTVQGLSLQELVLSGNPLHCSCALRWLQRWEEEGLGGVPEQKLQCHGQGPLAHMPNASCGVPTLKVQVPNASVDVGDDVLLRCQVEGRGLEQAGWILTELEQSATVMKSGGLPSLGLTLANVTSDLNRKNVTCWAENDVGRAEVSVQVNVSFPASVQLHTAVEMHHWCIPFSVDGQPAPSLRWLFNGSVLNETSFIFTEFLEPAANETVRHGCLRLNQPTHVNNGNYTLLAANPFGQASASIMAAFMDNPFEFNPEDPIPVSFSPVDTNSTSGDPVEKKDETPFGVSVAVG
Human trkC (KIRA assay), sequence (Q16288 32-839 limits assumed): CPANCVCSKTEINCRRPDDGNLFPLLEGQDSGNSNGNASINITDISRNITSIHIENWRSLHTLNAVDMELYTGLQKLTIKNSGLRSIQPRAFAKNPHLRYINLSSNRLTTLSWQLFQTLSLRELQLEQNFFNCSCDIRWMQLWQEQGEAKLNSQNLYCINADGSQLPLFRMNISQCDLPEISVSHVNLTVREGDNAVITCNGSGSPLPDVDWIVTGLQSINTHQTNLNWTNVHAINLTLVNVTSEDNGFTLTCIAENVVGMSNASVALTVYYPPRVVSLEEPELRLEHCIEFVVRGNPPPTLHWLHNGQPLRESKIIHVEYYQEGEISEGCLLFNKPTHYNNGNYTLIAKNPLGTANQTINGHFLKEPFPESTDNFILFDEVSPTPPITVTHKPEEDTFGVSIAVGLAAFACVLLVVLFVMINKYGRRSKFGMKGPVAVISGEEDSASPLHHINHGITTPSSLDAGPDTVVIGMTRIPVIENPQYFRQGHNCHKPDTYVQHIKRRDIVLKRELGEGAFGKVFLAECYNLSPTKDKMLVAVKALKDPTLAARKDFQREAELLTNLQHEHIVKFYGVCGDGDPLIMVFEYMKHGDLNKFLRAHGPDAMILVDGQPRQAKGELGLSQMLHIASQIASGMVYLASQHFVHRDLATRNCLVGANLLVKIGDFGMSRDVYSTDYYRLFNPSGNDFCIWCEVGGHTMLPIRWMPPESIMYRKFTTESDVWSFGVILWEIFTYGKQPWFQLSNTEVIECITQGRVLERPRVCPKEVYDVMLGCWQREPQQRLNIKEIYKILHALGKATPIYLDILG
T4 sequence (Q63604 32-429 limits assumed): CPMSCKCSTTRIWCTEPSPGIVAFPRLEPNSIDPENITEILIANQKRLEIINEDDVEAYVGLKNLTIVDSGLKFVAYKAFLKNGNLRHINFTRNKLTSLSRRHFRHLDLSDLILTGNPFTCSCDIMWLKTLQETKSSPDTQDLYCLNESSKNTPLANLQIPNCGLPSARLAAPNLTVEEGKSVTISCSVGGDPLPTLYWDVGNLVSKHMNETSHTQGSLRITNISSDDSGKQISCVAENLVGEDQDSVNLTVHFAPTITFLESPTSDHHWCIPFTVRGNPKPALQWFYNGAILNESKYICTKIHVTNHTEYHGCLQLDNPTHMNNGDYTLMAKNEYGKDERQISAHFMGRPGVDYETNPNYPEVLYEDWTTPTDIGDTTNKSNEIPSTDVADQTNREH

B1: Antibody A5, full IgG (antibody, V domains shown)
VH: QVQLVQSGAEVKKPGASVKVSCKASGYTFTSYRIHWVRQAPGQGLEWMGEIYPSNARTNYNEKFKSRVTMTRDTSTSTVYMELSSLRSEDTAVYYCARKYYYGNTRRSWYFDVWGQGTTVTVSS
VL: DIQMTQSPSSLSASVGDRVTITCRASESIDNYGISFLAWYQQKPGKAPKLLIYAASNRGSGVPSRFSGSGSGTDFTFTISSLQPEDIATYYCQQSKTVPRTFGQGTKLEIKR
In the case of B1, the binding result in experiment [1], in experiment [2], in experiment [3] and in experiment [4] was “no binding” each time. Besides, the “EC50, neuron survival” value in experiment [5] came to 1 pM. The “EC50 (read off the curve), KIRA” value in experiment [6] was approximately 0.1 nM.
